Measurements: patent US11360100B2, “Methods and compositions useful in detecting proteins” (OREGON HEALTH & SCIENCE UNIVERSITY, priority 2016, dated 2022)
Entries after “also recorded” stand apart in the source; their conditions may differ. rhodamine = not defined here; BODIPY = not defined here

What was measured:
untagged TfR1 = biological target: T1, untagged TfR1 (Homo sapiens, UniProt P02786); experiment: CoilR probe labeling of CHO TRVb cells expressing untagged TfR1; format: cell-based; conditions: labeled at 4° C.
T1 construct: expressed in transfected cells; host or cells: CHO TRVb
T1 sequence (P02786 whole entry): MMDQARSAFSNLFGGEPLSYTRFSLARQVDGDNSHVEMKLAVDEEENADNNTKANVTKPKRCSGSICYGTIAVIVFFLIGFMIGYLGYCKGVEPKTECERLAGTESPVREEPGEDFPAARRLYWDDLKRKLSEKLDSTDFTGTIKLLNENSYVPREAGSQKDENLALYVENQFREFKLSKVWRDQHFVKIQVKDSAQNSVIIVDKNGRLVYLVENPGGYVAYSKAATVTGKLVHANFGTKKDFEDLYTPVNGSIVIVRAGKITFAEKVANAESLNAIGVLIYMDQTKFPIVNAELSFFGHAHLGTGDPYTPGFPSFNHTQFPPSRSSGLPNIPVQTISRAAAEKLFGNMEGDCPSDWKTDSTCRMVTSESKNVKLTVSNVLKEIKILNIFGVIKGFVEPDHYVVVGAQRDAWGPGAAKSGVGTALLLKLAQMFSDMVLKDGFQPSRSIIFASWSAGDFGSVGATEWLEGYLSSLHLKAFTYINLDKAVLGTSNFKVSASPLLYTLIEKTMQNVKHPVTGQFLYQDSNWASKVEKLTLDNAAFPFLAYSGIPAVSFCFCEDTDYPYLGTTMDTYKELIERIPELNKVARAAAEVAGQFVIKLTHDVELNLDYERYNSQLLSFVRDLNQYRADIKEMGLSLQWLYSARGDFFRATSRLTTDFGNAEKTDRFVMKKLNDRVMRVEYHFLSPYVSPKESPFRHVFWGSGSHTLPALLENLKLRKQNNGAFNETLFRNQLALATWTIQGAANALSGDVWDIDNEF

TfR1-MiniE = experiment: miniVIPER versus VIPER labeling of TfR1 in CHO TRVb cells; format: cell-based; conditions: Tf-AF488 and full length CoilR-Cy5
Protocol: FIG. 24 A and B are fluorescent micrographs comparing VIP E/R labeling with miniVIPER (MiniE and MiniR) labeling of TfR1. […] After labeling cells were imaged over time during a 30 min incubation at 37° C. Cells were imaged as confocal slices at 63× magnification. Transferrin-AF488 was false-colored green, CoilR-Cy5 was false-colored magenta, and nuclei were stained with Hoechst and false-colored blue. Individual channels are shown in FIG. 24B (blue, green, magenta) for the 5 minute timepoint. A Pearson's correlation analysis was used to compare fluorescence co-localization of CoilR-Cy5 with Transferrin-AF488. The p values are reported on the image and indicate that TfR1-miniE had better co-localization between Tf and CoilR labeling.
VIP E/R was edited by removing a heptad repeat, and changing key residues in the sequence to maximize affinity, improve dimer interface and create a smaller tag pair with more favorable charge balance for imaging in cells. MiniE (SEQ ID NO:10) and MiniR (SEQ ID NO:9) were created. TfR1 was tagged at the C-terminus with MiniE.

CoilZ-EGFP [1] = experiment: SDS-PAGE/PVDF membrane labeling of transfected HEK293FT lysates, CoilZ-EGFP; format: binding; conditions: cell lysates, SDS-PAGE, PVDF membrane
Protocol: The CoilY and CoilZ pair could be used to label two protein targets simultaneously. Transfected HEK293FT cell lysates from cells expressing mCherry, CoilY-mCherry, EGFP, or CoilZ-EGFP were resolved by SDS-PAGE and transferred to a PVDF membrane. The membrane was incubated sequentially with CoilZ-fluorescein and CoilY-rhodamine before imaging. GFP and mCherry fluorescence was not preserved due to SDS-PAGE protein denaturation.
(§1) A protein gel-based assay was optimized for analyzing VIP tags in vitro. Cell lysates were made from cells transfected with mCherry, CoilY-mCherry, GFP, or CoilZ-GFP, resolved by SDS-PAGE, and transferred to a membrane. GFP and mCherry fluorescence were not preserved in this experiment. The membrane was then contacted with CoilZ-fluorescein and CoilY-rhodamine before imaging. […] The probe peptides were specific for each tagged protein, and this single pair enabled specific and selective protein tagging of two distinct targets. In addition both the VIP E/R and VIP Y/Z tag sets could be used concurrently to label two recombinant proteins (DHFR and mCherry) without crosstalk (FIG. 23).

[2] = biological target: coiled-coil heterodimer pairs; conditions: heterodimer pair, Table 2; cited from earlier work
untagged EGFP-TM = experiment: Flow cytometry of probe labeling, live U-2 OS cells expressing untagged EGFP-TM; format: cell-based, human; conditions: 500 nM probe
Protocol: The in vitro results were translated to living cells. Flow cytometry was used to evaluate protein labeling in live human osteosarcoma (U-2 OS) cells expressing CoilZ-EGFP-TM, CoilY-EGFP-TM, or untagged EGFP-TM (FIG. 11). Cells were treated with 500 nM AF647-conjugated probe peptide before analysis, and we gated for EGFP-expressing cells. […] Non-specific labeling of untagged EGFP-TM and homodimerization with CoilY-EGFP-TM were minimal for cells exposed to CoilY-AF647. Cells expressing CoilY-EGFP-TM were labeled with CoilZ-AF647, but with only a 4-fold enhancement.
Protein labeling was assessed as a function of CoilY-AF647 concentration (FIG. 25). Live cells expressing CoilZ-EGFP-TM or untagged EGFP-TM were treated with a range of CoilY-AF647 concentrations (50 nM to 1000 nM for 30 min at room temperature). […] Cells had 21- to 44-fold higher median fluorescence compared to cells expressing untagged protein. Treatment with 300 nM AF647-CoilY gave optimal labeling, with 98% of cells labeled and a 35-fold increase in AF647 fluorescence. Treatment with an excess of probe peptide (i.e., 1000 nM) enhanced the AF647 signal, but at the cost of a small increase in non-specific labeling.

CoilZ-EGFP [3] = experiment: Fluorescence microscopy labeling of cell-surface CoilZ-GFP (CoilZ-EGFP); format: cell-based, human; conditions: fluorescence microscopy
Protocol: (§2) Fluorescence microscopy was used to confirm that the VIP Y/Z tag set enabled selective fluorescent labeling of proteins (FIGS. 3A and 3B). CoilZ was expressed by fusion to a cell-surface localized variant of GFP (CoilZ-GFP; pDisplay vector). […] Labeling was rapid (<30 min), target-specific, and live-cell compatible. Homodimerization between a CoilZ probe peptide and CoilZ-GFP was not observed. Cells expressing untagged GFP were not labeled with the CoilY probe peptide. CoilY was also expressed fused to the cell surface localized GFP and visualized using a CoilZ-AF647 probe peptide (FIG. 3B). No homodimerization of CoilY was observed, and the labeling was specific.
(§3) It was next confirmed that the VIP Y/Z tag set could be used in two-target imaging in fixed cells (FIGS. 5B and 13). A combination of cell lines singly-transfected with mCherry, GFP, CoilY-mCherry, or CoilZ-GFP was used, as illustrated in FIG. 9. […] Then we labeled two tagged FPs in one sample using a mixed population of cells expressing either CoilY-mCherry or CoilZ-GFP.
(§4) The disclosed methods were tested in transfected human osteosarcoma cells (U-2 OS). A pDisplay vector was used to target CoilZ-EGFP and untagged EGFP to the cell surface. This construct includes a C-terminal fusion to the transmembrane domain of the platelet derived growth factor receptor. As expected, both CoilZ-EGFP and untagged EGFP localized to the cell surface, and green fluorescence was observed within 24 h of transfection. Then the cells were blocked with 6% BSA and 10% FBS for 30 minutes at 37° C. and then contacted with an AF647-conjugated CoilY probe (CoilY-AF647), 30 min at 4° C. Cells were fixed before imaging by confocal fluorescence microscopy. The probe peptides are membrane impermeant; only cell-surface EGFP was accessible to CoilY-AF647 for labeling. Colocalization of green fluorescent CoilZ-EGFP with CoilY-AF647 was observed.
(§5) The CoilY/CoilZ tag set is also compatible with live-cell imaging. CoilZ-EGFP was contacted with CoilY-AF647 in live U2OS cells. […] Homodimerization was not observed for CoilY-EGFP incubated with CoilY-AF647. Non-specific labeling of untagged GFP was not observed (FIG. 26). Cells internalize labeled targets over time. CoilZ-GFP and CoilY-AF647 co-localization was observed on the surface and in endocytic vesicles due to rapid internalization, and AF647 signal accumulated inside cells during a 40 min. long incubation at room temperature (FIG. 12).
The VIPY/Z tag set can be used to label multiple protein targets simultaneously. Cells expressing CoilY-mCherry were combined with those expressing CoilZ-EGFP-pDisplay (FIG. 9). This mixed cell population, as well as unmixed CoilZ-GFP, CoilY-mCherry, and untagged controls, were plated for imaging. […] Fluorescence was detected by confocal fluorescence imaging. […]

CoilY-EGFP = experiment: Fluorescence microscopy labeling of cell-surface CoilY-GFP (CoilY-EGFP); format: cell-based, human
Protocol: as §2
The CoilY/CoilZ tag set is bidirectional—either CoilZ or CoilY can serve as the probe peptide. CoilY-EGFP was expressed on the surface of U2OS cells and labeled with CoilZ-AF647. Protein labeling was rapid (<30 min) and specific; non-specific labeling of untagged EGFP was not observed. Homodimerization was not observed for either CoilZ-AF647 with CoilZ-EGFP or CoilY-AF647 with CoilY-EGFP (FIG. 3B).
as §5

[4] = tested on: untagged GFP/EGFP and mCherry; experiment: Fluorescence microscopy, cells expressing untagged fluorescent proteins; format: cell-based, human
Protocol: as §2, §3, §4
The CoilY/CoilZ tag set is bidirectional—either CoilZ or CoilY can serve as the probe peptide. CoilY-EGFP was expressed on the surface of U2OS cells and labeled with CoilZ-AF647. […]

[5] = tested on: untagged mCherry and DHFR; experiment: SDS-PAGE/PVDF membrane labeling, untagged proteins; format: binding; conditions: lysates and purified proteins, PVDF membrane
Protocol: Crude lysates (lys.) and purified proteins (serial dilutions) were resolved by SDS-PAGE. Lysates were prepared from HERK 293FT cells transfected with mCherry, CoilY-mCherry, DHFR, and CoilE-DHFR. The protein gel was transferred to a PVDF membrane and then incubated with CoilZ-Fluorescein and CoilR-rhodamine. After washing, the membrane was imaged to detect VIPER labeling of DHFR (red) and VIP Y/Z labeling of mCherry (green). Untagged proteins were not labeled by either CoilR-rhodamine or CoilZ-fluorescein.
as §1

B1: CoilR-BODIPY: CoilR probe peptide conjugated to BODIPY (conjugate)
peptide: MGGSLEIRAAFLRQRNTALRTEVAELEQEVQRLENEVSQYETRYGPLGGGAAALGC(BODIPY)LAAALEHHHHHH
modifications: reading uncertain
Untagged TfR1
  labeling of cells expressing untagged TfR1: showed now labeling

B2: miniVIPER: shorter, better charge balanced VIP E/R pair of MiniE and MiniR (peptide)
chain 1: LEIRVAFLRQRNTALRTEVAELEQEVQRLENRYGPL
chain 2: LEIEAAFLERENTALETRVAELRQRVQRLRNEYGPL
TfR1-MiniE
  Tf-AF488 signal compared to VIPER: brighter Tf-A488 signal
  colocalization between Tf-AF488 and CoilR-Cy5 compared to VIPER: improved colocalization

B3: CoilY-rhodamine: red fluorescent CoilY probe peptide, maleimide conjugate (conjugate)
peptide: MGSSNTVKELKNYIQELEERNAELKNLKEHLKFAKAELEFELAAHKFEGGGAAAC(rhodamine)LGKLAAALEHHHHHH
modifications: reading uncertain
notes: red fluorescent CoilY probe peptide, maleimide conjugate
CoilZ-EGFP [1]
  probe peptide binding to CoilZ-EGFP on membrane: specific coiled-coil heterodimer formation could be detected; also recorded: Probe peptide binding was detected

B4: VIP 3/4: heterodimeric tag pair of Coil3 and Coil4 (peptide)
chain 1: NEVTTLENDAAFIENENAYLEKEIARLRKEKAALRNRLAHKK
chain 2: QKVAELKNRVAVKLNRNEQLKNKVEELKNRNAYLKNELATLENEVARLENDVAE
[2]
  Kd: < 30 nM

B5: CoilZ-AF647: CoilZ probe peptide conjugated to AF647 (conjugate)
peptide: MGSSQKVAQLKNRVAYKLKENAKLENIVARLENDNANLEKDIANLEKDIANLERDVARGGGAAACLGKLAAALEHHHHHH
Untagged EGFP-TM
  non-specific labeling of untagged EGFP-TM: slightly higher
CoilZ-EGFP [3]
  homodimerization / cross-reactivity of CoilZ probe with CoilZ-GFP/EGFP: not observed
CoilY-EGFP; CoilY-EGFP on surface of U2OS cells
  labeling time (rapid): < 30 min
CoilY-EGFP; fluorescence microscopy
  labeling of CoilY-GFP/EGFP (specificity): specific
[4]
  non-specific labeling of untagged fluorescent proteins: not observed

B6: CoilZ probe peptide: CoilZ with linker, reactive cysteine and His6 tag, SEQ ID NO: 14 (peptide)
chain: B5 peptide
CoilZ-EGFP [3]
  homodimerization / cross-reactivity of CoilZ probe with CoilZ-GFP/EGFP: not observed

B7: CoilR-rhodamine: CoilR probe peptide conjugated to rhodamine (conjugate)
peptide: MGGSLEIRAAFLRQRNTALRTEVAELEQEVQRLENEVSQYETRYGPLGGGAAALGC(rhodamine)LAAALEHHHHHH
modifications: reading uncertain
[5]
  labeling of untagged proteins on membrane: not labeled

B8: CoilY probe peptide: CoilY with linker, reactive cysteine and His6 tag, SEQ ID NO: 13 (peptide)
chain: MGSSNTVKELKNYIQELEERNAELKNLKEHLKFAKAELEFELAAHKFEGGGAAACLGKLAAALEHHHHHH
[4]
  non-specific labeling of untagged fluorescent proteins: not labeled

B9: VIP 1/2: heterodimeric tag pair of Coil1 and Coil2 (peptide)
chain 1: NLVAQLENEVASLENENETLKKKNLHKKDLIAYLEKEIANLRKKIEE
chain 2: ARNAYLRKKIARLKKDNLQLERDEQNLEKIIANLRDEIARLENEVASHEQ
[2]
  Kd: < 10 nM
